The values that follow come from publication PMC3447989.

For the assay, the target named is Treponema denticola superoxide reductase (Treponema denticola (strain ATCC 35405)). In words: SEC.

“Treponema denticola superoxide reductase (enzyme)” gave a stoichiometry N of 2.
